Assay [1] addresses T1, peptide 35: 137-EPENINAALQETEAP-151 (human).
T1 construct: Spotted on a nitrocellulose membrane; The range counts on the d20plus region; also called spot 35
T1 peptide: EPENINAALQETEAP
The assay is described as follows: pepscan, 15-mer peptides on nitrocellulose, NG004 at 1 ug/ml. Here is the method:
(§1) Epitope mapping of NG004 was performed using scans of overlapping peptides. The sequences of the d20plus region of Nogo-A (aa 543-866 of human Nogo-A) were synthesized as linear 15-mer peptides with an 11 amino acid overlap between individual peptides. Those peptides were spotted onto nitrocellulose membranes (JPT Peptide Technologies, Berlin, Germany). The membrane was activated for 5 min in methanol and washed in TBS for 10 min at RT. Non-specific binding sites were blocked for 2 hours at RT with Roti®-Block (Carl Roth GmbH+Co. KG, Karlsruhe, Germany). NG004 (1 μg/ml) was incubated in Roti®-Block for 3 h at room temperature. Binding of primary antibody was determined using HRP-conjugated donkey anti-human IgG secondary antibody. Blots were developed and evaluated using ECL and ImageQuant 350 detection (GE Healthcare, Otelfingen, Switzerland).

Assay [2] has as its target T2, peptide 34: 133-EEIKEPENINAALQE-147 (human).
T2 construct: Spotted on a nitrocellulose membrane; The range counts on the d20plus region, not on full-length Nogo-A; also called spot 34
T2 peptide: EEIKEPENINAALQE
Described as above. Here is the method:
as §1

The target of assay [3] is T3, peptide 36: 141-INAALQETEAPYISI-155 (human).
T3 construct: Spotted on a nitrocellulose membrane; The range counts on the d20plus region; also called spot 36
T3 peptide: INAALQETEAPYISI
The description is as above. Here is the method: as §1

Assay [4] deals with T4, human Nogo-A d20plus region (human aa position 543-866), recombinantly produced in E. coli (human, UniProt Q9NQC3 543-866).
T4 construct: range 543-866; also called human d20plus; hu d20+
T4 sequence (looked up): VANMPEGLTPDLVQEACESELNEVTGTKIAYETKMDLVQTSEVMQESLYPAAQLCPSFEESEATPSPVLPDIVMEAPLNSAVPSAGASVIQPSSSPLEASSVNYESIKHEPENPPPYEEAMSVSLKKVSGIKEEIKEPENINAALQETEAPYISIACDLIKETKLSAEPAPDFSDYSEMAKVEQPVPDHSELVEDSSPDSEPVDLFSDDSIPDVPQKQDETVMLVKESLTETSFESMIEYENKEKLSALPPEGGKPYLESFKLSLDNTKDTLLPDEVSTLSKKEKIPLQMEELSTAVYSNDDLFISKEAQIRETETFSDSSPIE
The assay is described as follows: ELISA, plate coated with 3 ug/ml human d20plus. The text has this:
(§2) The neurite outgrowth inhibitor Nogo-A contains 3 inhibitory regions. Two are shared with the splice variant Nogo-B (Nogo-66 located between the two transmembrane regions and the NIR domain at the tip of the N-terminus) and one is shared with the splice variant Nogo-C (Nogo-66). The unique, highly inhibitory domain for neurite outgrowth of Nogo-A is located in the exon 3 of Nogo-A and is called delta 20 region (d20; human aa position 566-748) (Oertle et al., J. Neurosci. 23 (2003), 5393-5406). To confirm the binding properties of antibodies NG004 NG034 and to monitor for cross-reactivity to other species like rat, an ELISA with a fragment containing the d20 region plus some additional amino acids C- and N-terminal of the inhibitory region (human aa position 543-866) was performed. This fragment is called rat or human d20plus and is recombinantly produced in E. coli. To examine that the antibody binds strongly to the d20plus region and to compare the binding properties of the subject antibodies NG004 and NG034 to the already known antibodies (11C7 and Ozanezumab) the ELISA was used and EC₅₀ values were compared.
(§3) The ELISA is performed according to a standard protocol (Engvall & Perlmann, J. Immunol. 109 (1972), 129-135, Engvall & Perlmann, Immunochemistry 8 (1971), 871-874). […] The readouts are performed on the Tecan Sparc plate reader.
(ELISA stands for enzyme-linked immunosorbent assay.)

Assay [5] addresses T4, human Nogo-A d20plus region (human aa …). As to the kind of experiment: ELISA, coated d20plus (human, as read from the context), internal standard.
Assay [6] has the same target. As to the kind of experiment: ELISA, coated human d20plus.
Text: as §2, §3

Assay [7] deals with T5, rat Nogo-A d20plus region, recombinantly produced in E. coli (rat, UniProt Q9JK11 520-843, limits assumed).
T5 construct: domain: d20plus; also called rat d20plus; rat peptide d20plus
T5 sequence (looked up): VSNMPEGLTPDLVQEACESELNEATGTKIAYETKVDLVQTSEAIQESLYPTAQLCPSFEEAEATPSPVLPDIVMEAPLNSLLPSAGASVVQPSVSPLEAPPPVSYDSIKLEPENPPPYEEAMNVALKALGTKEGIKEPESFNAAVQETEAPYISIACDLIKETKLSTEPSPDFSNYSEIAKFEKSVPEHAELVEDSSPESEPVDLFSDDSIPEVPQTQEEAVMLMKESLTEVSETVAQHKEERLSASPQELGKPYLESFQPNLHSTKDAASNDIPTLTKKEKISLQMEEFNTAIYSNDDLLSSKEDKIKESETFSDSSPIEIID
As to the kind of experiment: ELISA, coated rat d20plus.
Text: as §2, §3

B1: anti-Nogo-A specific human antibody NG004 (antibody, V domains shown)
VH: EVQLVESGGGVVQPGRSLRLSCAASGFTFRSHAMHWVRQAPGKGLEWVAVTSYDGTNKYYADSVKGRFTISKDNSKNTLYLQMDSLRVEDTAVYYCARGRAVAGTREDYWGQGTLVTVSS
VL: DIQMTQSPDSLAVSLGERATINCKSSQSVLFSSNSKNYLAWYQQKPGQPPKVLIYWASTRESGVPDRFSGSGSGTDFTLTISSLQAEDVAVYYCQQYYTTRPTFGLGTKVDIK
notes: The neurite outgrowth assay used NG004.h4.m1 (human IgG4 S228P) and NG004.m1 (mouse IgG1); also called NG004.m1; NG004.h4.m1
What is called EC50 is the concentration needed to bring the measured effect to its halfway point. Turning to B1, the binding result in assay [1], in assay [2] and in assay [3] was “binds” throughout. The 50% effective concentration (EC50) in assay [4] turned out to be 0.26 nM.

B2: Ozanezumab (antibody, V domains shown)
VH: QVQLVQSGAEVKKPGASVKVSCKASGYTFTSYWMHWVRQAPGQGLEWIGNINPSNGGTNYNEKFKSKATMTRDTSTSTAYMELSSLRSEDTAVYYCELMQGYWGQGTLVTVSS
VL: DIVMTQSPLSNPVTLGQPVSISCRSSKSLLYKDGKTYLNWFLQRPGQSPQLLIYLMSTRASGVPDRFSGGGSGTDFTLKISRVEAEDVGVYYCQQLVEYPLTFGQGTKLEIK
Consider B2, for which, in assay [5], the EC50 was 0.2 nM.

B3: anti-Nogo-A specific human antibody NG034 (antibody, V domains shown)
VH: EVQLVETGGGLVPPGGSLRLSCAASGFTFTNYSMHWVRLAPGKRLEYISAISSDGGDPFYASSVKGRVAISRDNSKKTLYLQMGRLRPEDTAVYYCVSDAFDVWGQGTMVTVSS
VL: EIVLTQSPLSLSVTLGQPASISCRSSQSLLYSNGNTYLNWFQQRPGQSPRRLLYRVSNRDSGVPDRFSGSGSGTHFTLKISRVEAEDVGVYYCMQGTHWPRTFGQGTKVEIK
On to B3, for which the results for the EC50 in assay [6] and in assay [7] were 0.298 nM and 0.229 nM, respectively.

These data come from patent US20230399390A1 (NOVAGO THERAPEUTICS, published 2023).
